{"source": "patent US20200010516A1", "target": "integrin αIIbβ3 on platelets of healthy donors (UniProt P08514)", "assay": "cell-based or functional assay"}
{"substance": "^39SRAGK-^46RIPRGDMP-^66RYH (Rho wild-type) (from UniProt P30403 408-475) (ligand)", "values": [{"measurement": "IC50, Platelet Aggregation", "result": 83.2, "unit": "nM"}]}
